These results are taken from patent publication US10570379B2, “Polypeptides for carbon-carbon bond formation and uses thereof” (INVISTA North America S.à.r.l., priority 2015, dated 2020).

Common to all, as to type: biochemical
Series [1] in a line: Activity of YdiF mutant enzymes (evaluation of potential active sites). Conditions: studied as in Example 2. As for the experimental part: YdiF mutants were prepared using the relevant primers to introduce the mutated bases via the Quick change lightning kit (Agilent, code product: 210518-5), and cloned into E. coli. In addition, all the proteins used in this experiment have the following extra amino acids added in the N-terminal extremity of the original protein sequence (SEQ ID NO:1): […]. Those additional amino acids correspond to: two amino acids (M and G), a 6×His-tag followed by a 3 amino acids linker (SSG), and a specific proteolytic cleavage site (thrombin site, underlined) (SEQ ID NO: 22). All the sequences were confirmed by DNA sequencing.
(§1) Acetyl-CoA was used at a final concentration of 1.5 mM and 30 mM of the substrate being studied (e.g. carboxylic acid salts, such as sodium acrylate) or 1.5 mM of propionyl-CoA in 50 mM Hepes buffer (pH 7.5). The reaction was started by addition of 0.5 mg/mL of YdiF pure protein or mutants to a final volume of 250 μL and incubated for 1 to 10 hours at 30° C.
(§2) All samples were prepared in triplicate and spun down at 15000 g for 20 min at 4° C. Detection of the thiol product (e.g. acryloyl-CoA) synthesized from CoA-transferase activity and the keto-thiol product (e.g. 3-oxopent-4-enoyl-CoA) due to putative thiolase activity of YdiF (or homologues) was carried out by Liquid Chromatography coupled to a qTof-Mass spectrometry (in positive mode), using a C18 column (Zorbax Eclipse C18, 2.1×50 mm, 1.8μ, Agilent, code product: 959757-902) and a gradient of 10 mM ammonium acetate and acetonitrile as mobile phase.
Mutations were introduced as described in Example 1 at the following positions previously found to be potentially involved in the active site of other β-ketothiolases: C258A, S60A, C112A, S38A, C390A. Activity of the mutant enzymes was studied as described in Example 2.
(§3) Mutations were introduced as described in Example 1 to replace the glutamate in position 324 of YdiF (see Selmer et al., 2002) with glycine (mutant E324G) or leucine (E324L). Activity of the mutant enzymes was studied as described in Example 2.

Series [2] is described as follows: Mutant E324G provided with propionyl-CoA and acetyl-CoA. As to conditions: propionyl-CoA + acetyl-CoA. Here is the method:
as §1, §2, §3

Series [3] is described as follows: Substrate specificity, 3-butenoate with acetyl-CoA, LC-MS. Conditions: substrate 3-butenoate + acetyl-CoA. As for the experimental part:
as §1, §2
(§4) To study the substrate specificity of YdiF, several commercially available substrates were provided to YdiF (and homologues) in combination with acetyl-CoA, as described in Example 2. LC-MS was used to detect the thiol-product synthesized via the transferase activity and the ketothiol-product synthesized via the thiolase activity.

A short description of series [4]: Substrate specificity, 4-pentenoate with acetyl-CoA, LC-MS. Conditions: substrate 4-pentenoate + acetyl-CoA. Here is the method: as §1, §2, §4
Series [5] is described as follows: Substrate specificity, propionate with acetyl-CoA, LC-MS. Here is the method:
as §1, §2, §4

A short description of series [6]: Substrate specificity, 2-hexenoate with acetyl-CoA, LC-MS. Conditions: substrate 2-hexenoate + acetyl-CoA. Here is the method: as §1, §2, §4
The nature of series [7]: Screen for dual transferase/ketothiolase activity with acetyl-CoA and sodium acrylate, LC-MS detection. Here is the method: as §1
Two controls were made from similar mixture except that the enzymes were inactivated by heating-up at 95° C. for 20 min or they were replaced by Buffer C.
as §2
YdiF from Clostridium propionicum belongs to the enzymatic class EC2.8.3.8. Other members of this enzyme class with similar structural features to YdiF, as well as proteins with a CoA-transferase activity from close-by enzymatic classes, were screened for dual transferase/ketothiolase activity as described in Example 2. Acetyl-CoA and sodium acrylate were provided as substrates. LC-MS was used to detect the thiol-product (propenoyl-CoA) synthesized via the transferase activity and the ketothiol-product (3-oxopent-4-enoyl-CoA) synthesized via the thiolase activity, as described in Example 2.

Series [8] in a line: Substrate specificity, 6-heptenoate with acetyl-CoA, LC-MS. Conditions: substrate 6-heptenoate + acetyl-CoA. As for the experimental part:
as §1, §2, §4

The nature of series [9]: Substrate specificity, butyrate with acetyl-CoA, LC-MS. As for the experimental part: as §1, §2, §4

B1: E324G: YdiF mutant, glycine for the glutamate in position 324, SEQ ID NO: 3 (protein)
chain: MGHHHHHHSSGLVPRGSMRKVPIITADEAAKLIKDGDTVTTSGFVGNAIPEALDRAVEKRFLETGEPKNITYVYCGSQGNRDGRGAEHFAHEGLLKRYIAGHWATVPALGKMAMENKMEAYNVSQGALCHLFRDIASHKPGVFTKVGIGTFIDPRNGGGKVNDITKEDIVELVEIKGQEYLFYPAFPIHVALIRGTYADESGNITFEKEVAPLEGTSVCQAVKNSGGIVVVQVERVVKAGTLDPRHVKVPGIYVDYVVVADPEDHQQSLDCEYDPALSGEHRRPEVVGEPLPLSAKKVIGRRGAIELEKDVAVNLGVGAPEYVASVADEEGIVDFMTLTAGSGAIGGVPAGGVRFGASYNADALIDQGYQFDYYDGGGLDLCYLGLAECDEKGNINVSRFGPRIAGCGGFINITQNTPKVFFCGTFTAGGLKVKIEDGKVIIVQEGKQKKFLKAVEQITFNGDVALANKQQVTYITERCVFLLKEDGLHLSEIAPGIDLQTQILDVMDFAPIIDRDANGQIKLMDAALFAEGLMGLKEMKS
On to B1, for which, in series [1], the transferase activity result is “Abolition of transferase activity”. Also, the “keto-thiol product (3-oxopentanoyl-CoA)” value in [2] is recorded as “presence of the keto-thiol product”.

B2: Bdigene 237: Acetate/Propionate CoA-transferase (YdiF) from Clostridium propionicum, Uniprot Q9L3F7, SEQ ID NO: 1 (protein, listed as Clostridium propionicum)
chain: MRKVPIITADEAAKLIKDGDTVTTSGFVGNAIPEALDRAVEKRFLETGEPKNITYVYCGSQGNRDGRGAEHFAHEGLLKRYIAGHWATVPALGKMAMENKMEAYNVSQGALCHLFRDIASHKPGVFTKVGIGTFIDPRNGGGKVNDITKEDIVELVEIKGQEYLFYPAFPIHVALIRGTYADESGNITFEKEVAPLEGTSVCQAVKNSGGIVVVQVERVVKAGTLDPRHVKVPGIYVDYVVVADPEDHQQSLDCEYDPALSGEHRRPEVVGEPLPLSAKKVIGRRGAIELEKDVAVNLGVGAPEYVASVADEEGIVDFMTLTAESGAIGGVPAGGVRFGASYNADALIDQGYQFDYYDGGGLDLCYLGLAECDEKGNINVSRFGPRIAGCGGFINITQNTPKVFFCGTFTAGGLKVKIEDGKVIIVQEGKQKKFLKAVEQITFNGDVALANKQQVTYITERCVFLLKEDGLHLSEIAPGIDLQTQILDVMDFAPIIDRDANGQIKLMDAALFAEGLMGLKEMKS
Turning to B2, the ketothiol-product entry in [3], in [4], in series [5], in series [6], in series [7] (3-oxopent-4-enoyl-CoA via thiolase activity) and in series [8] was “✓” each time. In addition, the ketothiol-product entry in series [9] is “✓”. For the same molecule, the thiol-product entry in series [3], in [4], in series [5], in [6], in series [7] (propenoyl-CoA via transferase activity) and in series [8] was “✓” each time. Also, the thiol-product entry in series [9] was “✓”.
